The source of these data is patent publication US20040106545A1 (MCGILL UNIVERSITY, published 2004).

Positions of bridges follow the written chain, without caps; N, C: chain ends.

Test in all cases: cell-based or functional assay
The target in test [1] is T1, chick N-cadherin expressed on transfected 3T3 cells (chick, UniProt P10288 165-912).
T1 sequence (looked up): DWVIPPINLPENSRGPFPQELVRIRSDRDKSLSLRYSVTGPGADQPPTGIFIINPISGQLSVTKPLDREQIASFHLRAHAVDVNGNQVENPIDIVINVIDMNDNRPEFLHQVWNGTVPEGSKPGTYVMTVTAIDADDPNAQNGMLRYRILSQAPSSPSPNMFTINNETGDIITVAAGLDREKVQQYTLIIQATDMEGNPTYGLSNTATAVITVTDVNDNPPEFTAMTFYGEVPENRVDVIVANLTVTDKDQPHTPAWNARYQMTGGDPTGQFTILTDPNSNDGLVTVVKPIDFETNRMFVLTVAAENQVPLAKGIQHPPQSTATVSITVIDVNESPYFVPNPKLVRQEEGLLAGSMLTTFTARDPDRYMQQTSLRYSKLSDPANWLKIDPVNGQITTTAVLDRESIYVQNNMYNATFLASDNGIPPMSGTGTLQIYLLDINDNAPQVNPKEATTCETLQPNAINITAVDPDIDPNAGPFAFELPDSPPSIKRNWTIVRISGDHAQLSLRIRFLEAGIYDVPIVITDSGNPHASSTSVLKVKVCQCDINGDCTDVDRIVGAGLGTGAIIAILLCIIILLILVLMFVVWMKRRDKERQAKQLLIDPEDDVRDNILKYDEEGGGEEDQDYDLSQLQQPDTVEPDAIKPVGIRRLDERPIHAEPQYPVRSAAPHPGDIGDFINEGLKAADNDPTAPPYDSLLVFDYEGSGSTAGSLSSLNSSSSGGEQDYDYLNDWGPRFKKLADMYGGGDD

Test [2] concerns the target N-cadherin expressed on transfected 3T3 cells (Examples 2 and 21).
In test [3] the target is T1, chick N-cadherin expressed on …. This is another data set of the same source.

Consider Ac-CHAVSC-NH2 (disulfide 1-6 (inferred)) [N-Ac-CHAVSC-NH2], for which, in test [1], the “% inhibition of N-cadherin dependent neurite outgrowth (peptide 250 µg/mL)” value (from here on “% inhibition … (peptide 250 µg/mL)”) is -2.5%. Besides, the “% Inhibition of neurite outgrowth, 250 µg/mL (rat neurons)” value (shortened to “% Inhibition … (rat neurons)”) in test [2] was found to be 0%.

In the case of Ac-CLRAHGVC-NH2 (disulfide 1-8 (inferred)) [N-Ac-CLRAHGVC-NH2], the “% inhibition … (peptide 250 µg/mL)” value in test [1] was -0.5%. In test [2], the “% Inhibition … (rat neurons)” value is 0%. In the case of Ac-CAHGVDIC-NH2 (disulfide 1-8 (inferred)) [N-Ac-CAHGVDIC-NH2], in test [1], the “% inhibition … (peptide 250 µg/mL)” value came out at 4.8%. Moreover, the “% Inhibition … (rat neurons)” value in test [2] is 0%. The corresponding values for Ac-CAHAVDIC-NH2 (disulfide 1-8 (inferred)) [N-Ac-CAHAVDIC-NH2] are 89.4% and 82%. Take Ac-CHAVDINGC-NH2 (disulfide 1-9 (inferred)) [N-Ac-CHAVDINGC-NH2]: in test [3], the “% inhibition of neurite outgrowth (peptide 125 µg/mL)” value turned out to be 1.5%.

B1: N-Ac-CSHAVSC-NH2 (peptide)
peptide: Ac-CSHAVSC-NH2
modifications: disulfide 1-7
SMILES: CC(=O)N[C@H]1CSSC[C@@H](C(N)=O)NC(=O)[C@H](CO)NC(=O)[C@H](C(C)C)NC(=O)[C@H](C)NC(=O)[C@H](Cc2c[nH]cn2)NC(=O)[C@H](CO)NC1=O
As to B1, in test [1], the “% inhibition … (peptide 250 µg/mL)” value was determined as 8.3%. Besides, the “% Inhibition … (rat neurons)” value in test [2] turned out to be 0%.

B2: N-Ac-CSHGVC-NH2 (peptide)
peptide: Ac-CSHGVC-NH2
modifications: disulfide 1-6
SMILES: CC(=O)N[C@H]1CSSC[C@@H](C(N)=O)NC(=O)[C@H](C(C)C)NC(=O)CNC(=O)[C@H](Cc2c[nH]cn2)NC(=O)[C@H](CO)NC1=O
Take B2: in test [1], the “% inhibition … (peptide 250 µg/mL)” value turned out to be 12.5%. Further, in test [2], the “% Inhibition … (rat neurons)” value is 0%. For Ac-CLRAHAVDC-NH2 (disulfide 1-9 (inferred)) [N-Ac-CLRAHAVDC-NH2], the “% inhibition … (peptide 250 µg/mL)” value in test [1] stood at 76.3%. In test [2], the “% Inhibition … (rat neurons)” value turned out to be 60%.

As to H-KHGVD-NH2 (lactam 1-5 (inferred)) [H-KHGVD-NH2], in test [2], the “% Inhibition … (rat neurons)” value was found to be 0%.

Turning to Ac-CRAHGVDC-NH2 (disulfide 1-8 (inferred)) [N-Ac-CRAHGVDC-NH2], the “% inhibition … (peptide 250 µg/mL)” value in test [1] was -8%. The “% Inhibition … (rat neurons)” value in test [2] came out at 0%.

Regarding Ac-CHGVC-NH2 (disulfide 1-5 (inferred)) [N-Ac-CHGVC-NH2], the “% inhibition … (peptide 250 µg/mL)” value in test [1] was 4.8%. Further, in test [2], the “% Inhibition … (rat neurons)” value turned out to be 0%.

As for Ac-CAHAVDC-NH2 (disulfide 1-7 (inferred)) [N-Ac-CAHAVDC-NH2], the “% inhibition … (peptide 250 µg/mL)” value in test [1] is 13.3%. Take Ac-CAHGVC-NH2 (disulfide 1-6 (inferred)) [N-Ac-CAHGVC-NH2]: in test [1], the “% inhibition … (peptide 250 µg/mL)” value is -6.4%. Further, the “% Inhibition … (rat neurons)” value in test [2] turned out to be 0%.

Consider Ac-KHGVD-NH2 (lactam 1-5 (inferred)) [N-Ac-KHGVD-NH2], for which, in test [2], the “% Inhibition … (rat neurons)” value was found to be 0%.

As for Ac-CHGVDC-NH2 (disulfide 1-6 (inferred)) [N-Ac-CHGVDC-NH2], the “% inhibition … (peptide 250 µg/mL)” value in test [1] is -8.6%. Further, the “% Inhibition … (rat neurons)” value in test [2] amounted to 0%.

H-CAHGVDIC-NH2 (disulfide 1-8 (inferred)) [H-CAHGVDIC-NH2]: the “% inhibition … (peptide 250 µg/mL)” value in test [1] was 7.2%. Further, the “% Inhibition … (rat neurons)” value in test [2] was found to be 0%.

B3: N-Ac-CSHGVSSC-NH2 (peptide)
peptide: Ac-CSHGVSSC-NH2
modifications: disulfide 1-8
SMILES: CC(=O)N[C@H]1CSSC[C@@H](C(N)=O)NC(=O)[C@H](CO)NC(=O)[C@H](CO)NC(=O)[C@H](C(C)C)NC(=O)CNC(=O)[C@H](Cc2c[nH]cn2)NC(=O)[C@H](CO)NC1=O
For the molecule B3, the “% inhibition … (peptide 250 µg/mL)” value in test [1] is -5.6%. Also, in test [2], the “% Inhibition … (rat neurons)” value is 0%. The corresponding values for Ac-CHGVSSC-NH2 (disulfide 1-7 (inferred)) [N-Ac-CHGVSSC-NH2] are 14.8% and 0%. Turning to H-KHAVD-NH2 (lactam 1-5 (inferred)) [H-KHAVD-NH2], in test [2], the “% Inhibition … (rat neurons)” value was found to be 0%. As for Ac-CHAVSSC-NH2 (disulfide 1-7 (inferred)) [N-Ac-CHAVSSC-NH2], the “% inhibition … (peptide 250 µg/mL)” value in test [1] was determined as 34.4%. For the same molecule, in test [2], the “% Inhibition … (rat neurons)” value is 0%. The corresponding values for H-CHGVC-NH2 (disulfide 1-5 (inferred)) [H-CHGVC-NH2] are 7.8% and 0%. As to Ac-KHAVD-NH2 (lactam 1-5 (inferred)) [N-Ac-KHAVD-NH2], the “% Inhibition … (rat neurons)” value in test [2] turned out to be 0%. Ac-CAHAVC-NH2 (disulfide 1-6 (inferred)) [N-Ac-CAHAVC-NH2]: the “% inhibition … (peptide 250 µg/mL)” value in test [1] came out at 58.5%. Besides, in test [2], the “% Inhibition … (rat neurons)” value was determined as 51%.

B4: N-Ac-CSHGVSC-NH2 (peptide)
peptide: Ac-CSHGVSC-NH2
modifications: disulfide 1-7
SMILES: CC(=O)N[C@H]1CSSC[C@@H](C(N)=O)NC(=O)[C@H](CO)NC(=O)[C@H](C(C)C)NC(=O)CNC(=O)[C@H](Cc2c[nH]cn2)NC(=O)[C@H](CO)NC1=O
As for B4, the “% inhibition … (peptide 250 µg/mL)” value in test [1] was 10.8%. The “% Inhibition … (rat neurons)” value in test [2] was 0%.

On to Ac-CLRAHAVC-NH2 (disulfide 1-8 (inferred)) [N-Ac-CLRAHAVC-NH2], for which the “% inhibition … (peptide 250 µg/mL)” value in test [1] worked out at 9.9%. Besides, the “% Inhibition … (rat neurons)” value in test [2] came to 0%.

Regarding Ac-CLRAHGVDC-NH2 (disulfide 1-9 (inferred)) [N-Ac-CLRAHGVDC-NH2], in test [1], the “% inhibition … (peptide 250 µg/mL)” value is -6.8%. In test [2], the “% Inhibition … (rat neurons)” value stood at 0%. For the molecule Ac-CHGVSC-NH2 (disulfide 1-6 (inferred)) [N-Ac-CHGVSC-NH2], in test [1], the “% inhibition … (peptide 250 µg/mL)” value was -6.7%. The “% Inhibition … (rat neurons)” value in test [2] worked out at 0%.

B5: N-Ac-CSHAVSSC-NH2 (peptide)
peptide: Ac-CSHAVSSC-NH2
modifications: disulfide 1-8
SMILES: CC(=O)N[C@H]1CSSC[C@@H](C(N)=O)NC(=O)[C@H](CO)NC(=O)[C@H](CO)NC(=O)[C@H](C(C)C)NC(=O)[C@H](C)NC(=O)[C@H](Cc2c[nH]cn2)NC(=O)[C@H](CO)NC1=O
Consider B5, for which the “% inhibition … (peptide 250 µg/mL)” value in test [1] was -12.6%. Moreover, the “% Inhibition … (rat neurons)” value in test [2] stood at 0%.

As for Ac-CAHGVDC-NH2 (disulfide 1-7 (inferred)) [N-Ac-CAHGVDC-NH2], the “% inhibition … (peptide 250 µg/mL)” value in test [1] came to 4%. Turning to Ac-CRAHAVDC-NH2 (disulfide 1-8 (inferred)) [N-Ac-CRAHAVDC-NH2], the “% inhibition … (peptide 250 µg/mL)” value in test [1] was -5%. For the same molecule, the “% Inhibition … (rat neurons)” value in test [2] stood at 0%. As to H-CAHGVDC-NH2 (disulfide 1-7 (inferred)) [H-CAHGVDC-NH2], the “% inhibition … (peptide 250 µg/mL)” value in test [1] stood at 5.7%. Besides, in test [2], the “% Inhibition … (rat neurons)” value was found to be 0%.
